Assay results published in US20160207996A1 (ARGEN X N V, published 2016).

Columns and labels:
[1] = molecular target: human Nav1.7 (full length) (human) (UniProt Q15858); assay: cell-based or functional assay
Nt-GCGR-hFc = molecular target: T1, Nt-GCGR-hFc (human, UniProt P47871 26-136); assay: scFv binding ELISA, periplasmic extract on coated Nt-GCGR
T1 construct: domain: N-terminal domain; also called Nt-GCGR-Fc; recombinant N-terminal domain of GCGR; not shown: hFc
T1 sequence (P47871 26-136): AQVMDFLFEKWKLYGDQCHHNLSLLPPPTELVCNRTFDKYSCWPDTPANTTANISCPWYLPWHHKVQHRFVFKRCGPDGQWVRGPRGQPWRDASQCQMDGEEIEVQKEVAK

B1: 9A6 (antibody, V domains shown)
VH: EVQLVQPGAELRNPGASVKVSCKASGYTYTSAYIVWVRQAPGEGLEWMGRIDPEDGGTKYAQKFQGRVTFTADTSTNTAYVELSSLRSDDTAVYYCTAGLDYWGKGTLVTVSS
VL: ATMLTQSPGSLSVVPGESASISCKASQSLVHSDGMTYLYWLQQKPGQSPQRLIYRVSRRGSGVPDRFTGSGSGTDFTLNISDMKAEDAGVYYCAQDTYYPYSFGSGTSVEIK
[1]
  % inhibition of inward current following P02 voltage protocol, 10 µg/ml: 16.9%
  % inhibition of inward current following P02 voltage protocol, 25 µg/ml: 28%
  % inhibition of inward current following P02 voltage protocol, 100 µg/ml: 36.2%

B2: scFv D6 (scFv, part only; not given: GS linker, not shown: small tags and cut ends)
scFv, part: QLQLVESGGGLVQPGGSLRLSCAASGGIFDVMGWYHQAPGKQRGLVASITPAGSTNYADSVKGRFTISRDNAKNTVYLQMNSLKPDDTGVYYCYADGIDPRYGGDEFWGQGTQVTVSSSYELTQSPSVSVALRQTAKITCGGDNIGSKSAQWYQQKPGQAPVLVIYAGSRRPSGIPERFSGSNSGNTATLTVSGAQAEDEANYSCQVWDSSANASVFGGGTHLTVLG
Nt-GCGR-hFc
  ScFv binding ELISA signal: 1.09

B3: scFv B5 (scFv, part only; not given: GS linker, not shown: small tags and cut ends)
scFv, part: EVQLVQPGAELRNPGASVKVSCKASGYTFTSHYIDWVRQAPGQGLEWMGRIDPEDGGTTYEQKFQGRVTFTADTSTSTVYVELSSLRSEDTAVYYCARSTEIPTIRYYGMDYWGKGTPVTVSSQSVLTQPSAVSVSLGQTARITCQGGSLGSYGANWHQQKPGQAPVLLIYGDNSRPSGIPERFSGSKSGGTATLTISGAQAEDEADYYCQSFDYSGNAVFGGGTHLTVLG
Nt-GCGR-hFc
  ScFv binding ELISA signal: 0.508

B4: scFv C12 (scFv, part only; not given: GS linker, not shown: small tags and cut ends)
scFv, part: ELQVVESGGGLVPGGSLRLSCAASGFRVSVNAMSWVRQAPGKGLEWVSHIGSGGITGYADSVKGRFTISRDSAKNTLYLQMNSLKPEDTAVYYCTKRSSGYAWGQGTQVTVSSQAGLTQLPSVSGSPGQKITISCTGSSNNIGAGYSVQWFQQVPGSPPRLLIDGATNRDSGVPDRFSDSRSGSSASLTITGLQAEDEADYYWMLQQPQGVLCSAEGPI
Nt-GCGR-hFc
  ScFv binding ELISA signal: 2.56

B5: scFv D5 (scFv)
chain: EVQVQESGGGLVQPGGSLRLSCATSGFTFSNYYMSWVRQAPGKGPEWVSSIYSDLSTTYYADSVKGRFTISRDRAKNTLYLQMNSLKSEDTAVYYCARLSTVAGVDYWGKGTLVTVSSSYELTQSPSVSVALRQTAKITCGGNNIGDKSAQWYQQKPDQAPVLVIYADNRRPSEIPERFSGSNSGDTATLTISGAQAEDEADYYCQVWDSGANAAVFGGGTHLTVLG
Nt-GCGR-hFc
  ScFv binding ELISA signal: 0.268

B6: scFv D7 (scFv)
chain: QVQLVESGGGLVQPGGSLRLSCAASGFTFSWYAMSWVRQGPGKGLEWVSAINGGGGSTSYEDSVKGRFTISRDNAKNTLYLEMNSLKPEDTAVYYCARYSDGYSGSYTYTDMDYWGKGTLVTVSSQAVVTQEPSLSVSPGGTVTLTCGLSSGSVTSSNYPVWYQQTPGQAPHLLIYNTNTRHSGVPSRFSGFISGNKAALTITGAQPEDEADYYCASYRRSGRAVFGGGTHLTVLG
Nt-GCGR-hFc
  ScFv binding ELISA signal: 0.1

B7: scFv D8 (scFv)
chain: EVQLVESEGGSVQPGDSLRLSCAASGFSFSNAGMSWVRQAPGKGLEWVSAIIPGGYAPYYADSVKGRFTISRDNAKNTVSLQMNSLKPEDTALYYCAKYGGNWDLEVWGQGTLVTVSSQSALTQPPSVSGTLGKTVTISCTGTSSDIGGYNSVSWYQQLPGTAPKLLIYEVNKRASGIPDRFSGSKSGDTASLTISGLQSADEADYYCASYRNTRKSVFGGGTHLTVLG
Nt-GCGR-hFc
  ScFv binding ELISA signal: 1.14

B8: scFv A1 (scFv)
chain: QVQLVESGGGLVQPGGSLRLSCAASGFTFSSYAMTWVRQAPGKGLEWVSTITSNGDSTSYADSVKGRFTISRDNAKNTLYLQMDSLKPEDTAVYYCAKLGDGSYWFYYYGMDYWGQGTQVTVTSSSYELTQSSAVSLSLGQTARITCQGDNLGRYYVNWYQQKPGQAPVQVIYGNSNRPSGIPERFSGSSSGGTATLTISGAQAEDEADYYCQTYENSGVNLVFGGGTKLTVLG
Nt-GCGR-hFc
  ScFv binding ELISA signal: 2.18

B9: scFv A4 (scFv)
chain: QLQVVESGGGLVQPGGSLRLSCAASGFTFDSYWMYWVRQAPGKGLEWLSAINPGGGMTYYADSVKGRFTIARDNAKNTVYLQMNSLKSEDTAVYYCAKELRGSYYYISSEYDYWGQGTQVTVSSLPVLTQPPSVSGTLGKTVTISCAGTSSDIGDYNYVSWYQQLPGTAPKLLIYKVSTRASGIPDRFSGSKSGNTASLTISGLQSEDEADYYCASYRTSNNVVFGGGTHLTVLG
Nt-GCGR-hFc
  ScFv binding ELISA signal: 0.342

B10: scFv A5 (scFv)
chain: ELQLVESGGGLVQPGGSLRLSCAASGSTFSTAAMSWVRQAPGKGLEWVSAISSFGASTSYADSVKGRFTISRDIAKNTLYLQMNSLKPEDAAVYYCANVGLHPSWGFTSGFWGQGTQVTVSSSSALTQPPSVSGSPGKTVTISCAGTSSDVGYGNYVSWYQQLPGMAPKLLIHDVNKRASGITDRFSGSKSGNTASLTISGLQSEDEADYYCASYRRRNEVVFGGGTHLTVLG
Nt-GCGR-hFc
  ScFv binding ELISA signal: 1.31

B11: scFv A7 (scFv)
chain: QLQVVESGGGLVQPGGSLRLSCATSGFTFSNYYMSWVRQAPGKGPEWVSSIYSDLSTTYYADSVKGRFTISRDRAKNTLYLQMNSLKSEDTAVYYCARLSTVAGVDYWGKGTLVTVSSSYELTQSPSVSVALRQTAKITCGGNNIGSKSAQWYQQKPGQAPVLVIYADSRRPSGIPEKFSGSNSGNTATLTISGAQAEDEADYYCQVWDSSANAAVFGGGTHLTVLG
Nt-GCGR-hFc
  ScFv binding ELISA signal: 0.394

B12: scFv A8 (scFv)
chain: EVQVQESGPGLVKPSQTLSLTCTVSGESITTNYYYWNWIRQPPGKALEWMGAIGDSGTTWYNPSLKSRTSISRDTSKNQFTLQLISVTPEDTAVYYCARGFYDGSSLDFASWGQGTQVTVSSLSYELTQSPSVSVALRQAAKITCGGNNIASKFVNWYQQKPGQAPILVISKDTNRPSGIPERFSGSNSGNTATLTVSGAQAEDEADYYCQVWDGSAAVFGGGTHLTVLG
Nt-GCGR-hFc
  ScFv binding ELISA signal: 1.7

B13: scFv B2 (scFv)
chain: EVQLQESGGGLVQPGGSLRLSCATSGFTFSNYYMSWVRQAPGKGPEWVSSIYSDLSTTYYADSVKGRFTISRDRAKNTLSLQMNSLKSEDTAVYYCARLSTVAGVDYWGKGTLVTVSSSYELTQSPSVSVALRQTAKITCGGNNIGSKSAQWYQQKPGQAPVLVIYADSRRPSGIPERFSGSNSGNTATLTISGAQAEDEADYYCQVWDSSAAVFGGGTHLTVLG
Nt-GCGR-hFc
  ScFv binding ELISA signal: 0.137

B14: scFv B4 (scFv)
chain: EVQVQESGPGLVKPSQTLSLTCTVSGGSITTDYSYWSWIRQPPGKGLEWMGAIAFSDTTYYSPSLKSRTSISRDTSKNQFTLQLSSVTPEDTAVYYCARLSTVAGMDYWGKGTLVTVSSASAAASGSYELTQSPSVSVALRQTAKITCGGNNIGSKSAQWYQQKPGQAPVLVIYADNRRPSEIPERFSGSNSGDTATLTISGAQAEDEADYYCQVWDSSANAAVFGGGTHLTVLG
Nt-GCGR-hFc
  ScFv binding ELISA signal: 0.476

B15: scFv B8 (scFv)
chain: QVQLVESGGGLVQPGGSLRLSCATSGFTFSNYYMSWVRQAPGKGPEWVSSIYSDLSTTYYADSVKGRFTISRDRAKNTLYLQMNSLKSEDTAVYYCARLSTVAGMDYWGKGTLVTVSSSYELTQSPSVSVALRQTAKITCGGTNIGSKSAQWYQQKPGQAPMLVIYGDSRRPSGIPERFSGSNSGNTATLTISGAQAEDEADYYCQVWDSSANAAVFGGGTHLTVLG
Nt-GCGR-hFc
  ScFv binding ELISA signal: 0.205

B16: scFv C1 (scFv)
chain: ELQVVESGGGLVPGGSLRLSCAASGFRVSVNAMSWVRQAPGKGLEWVSHIGSGGITGYADSVKGRFTISRDSAKNTLYLQMNSLKPEDTAVYYCTKRSSGYAWGQGTQVTVSSQAGLTQLPSVSGSPGQKITISCTGSSNNIGAGYSVQWFQQVPGSPPRLLIDGATNRDSGVPDRFSDSRSGSSASLTITGLQAEDEADYYCECYDNSLRGAVFGGGTHLTVLG
Nt-GCGR-hFc
  ScFv binding ELISA signal: 1.54

B17: scFv C2 (scFv)
chain: QLQLVESGGGLQQPGGSLRLSCAASGFTFSSYAMGWVRQAPGKGLEWISIILNDGHRTYYTDSVKGRFTISRDNAKDTLSLQMNSLKPEDTAVYFCVKYVLNWAISDWGQGTQVTVSSQSVLTQPPSVSGSPGKTVTISCAGTSSDVGYGNYVSWYQQLPGMAPKLLIYNANKRASGITDRFSASKSGNTASLTISGLQSGDEAVYYCASYRYRDNAVFGGGTHLTVLG
Nt-GCGR-hFc
  ScFv binding ELISA signal: 0.465

B18: scFv C3 (scFv)
chain: QVQRQESGGGLVQPGGSLRLSCATSGFTFSNYYMSWVRQAPGKGPEWVSSIYSDLSTTYYADSVKGRFTISRDRAKNTLYLQMNSLKSEDTAVYYCARLSTVAGVDYWGKGTLVTVSSSYELTQSPSVSVALRQTAKITCGGNNIGSKSAQWYQQKPGQAPVLVIYADVRRPSEIPERFSGSNSGNTATLSVSGAQAEDEADYYCQVWDSSANAAVFGGGTHLTVLG
Nt-GCGR-hFc
  ScFv binding ELISA signal: 0.058

B19: scFv C4 (scFv)
chain: QVQLQESGPGLVKPSQTLSLTCTVSGGSITTNYYYWSWIRQPPGKGLEWMGAIAYSGSTYYSPSLKSRTSISRDTSKNQFTLQLSSVTPEDTAVYYCARGYYSGSSLDFGSWGQGTQVTVSSLPVLTQPSAVSVSLGQTARITCQGGNVGSYYTSWYQQKPGQAPVLVIYKDSERPSGIPERFSGSSSGNTATLTVSGAQAEDEGDYYCQVWDSSAAVFGGGTHLTVLG
Nt-GCGR-hFc
  ScFv binding ELISA signal: 0.274

B20: scFv C5 (scFv)
chain: QLQLVESGGGLVEPGGSLRLSCAASGFTFSNYYMSWVRQAPGKGPEWVSSIYSDLSTTYYADSVKGRFTISRDRAKNTLYLQMNSLKSEDTAVYYCARLSTVAGVDYWGKGTLVTVSSSYELTQSPSVSVALRQTAKITCGGNNIGSKSAQWYQQKPGQAPVLVIYADSRRPSGIPERFSGSNSGNTATLTISGAQAEDEADYYCQVWDSSSNGAVFGGGTHLTVLG
Nt-GCGR-hFc
  ScFv binding ELISA signal: 1.88

B21: scFv C10 (scFv)
chain: EVQLVQPGAELRNPGASVKVSCKASGYTFTAYYIDWVRQAPGQGLEWMGRIDPEDGGTTYEQKFQGRVTFTADTSTSTVYVELSSLRSEDTAVYYCARSTEIPTIRYYGMDYWGKGTPVTVSSASAAASGSYELTQSPSVSVALRQTAKITCGGDNIGSKSAQWYQQKPGQAPVLVIYADSRRPSGIPERFSGSNSGNTATLTISGAQAEDEADYYCQVWDSSANAAVFGGGTHLTVLG
Nt-GCGR-hFc
  ScFv binding ELISA signal: 0.88
